± gives the standard deviation of the averaged measurements.
Tested on: Saccharomyces cerevisiae
Assay: protein stability index of tFT-peptide fusion (C-terminal peptide) (PSI (0-1 scale)); higher = more stable (slower turnover)
Conditions: genetic background: wild type; temperature: 30 C
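Also: PSI is a weighted mean of sequencing reads over stability bins, variants kept only with over 10 reads, mCherry proximal and sfGFP distal, peptide attached via GGGS linker.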

Row | Sequence | protein stability index
1 | VRGRGVYRIDKV | 0.716 ± 0.018
2 | ASPPPEVCLSHR | 0.682 ± 0.0092
3 | TCFYYVGGEKCM | 0.665 ± 0.0077
4 | GMFDCIPPGTIP | 0.741 ± 0.094
5 | GRRRCGGGVEVC | 0.668 ± 0.014
6 | LAPTPLAPSPPP | 0.728 ± 0.055
7 | SPPFLPCLFHAS | 0.687 ± 0.048
8 | TGLRLFGVLSLI | 0.607 ± 0.016
9 | TQSAPGIPGAGE | 0.65 ± 0.025
10 | TNATENKNRHPN | 0.741 ± 0.068
11 | RGASKYDGDSRR | 0.668 ± 0.016
12 | GGNSRASAVKGA | 0.702 ± 0.1
13 | FETGPGSCTACA | 0.68 ± 0.0099
14 | GIPPVLFAPPPL | 0.696 ± 0.022
15 | PARPSSLQLFPY | 0.747 ± 0.0078
16 | EGWPGGRGGAGL | 0.614 ± 0.032
17 | KVGQWLRGKSKR | 0.7171 ± 0.00075
18 | LVWGQPWKMPVV | 0.699 ± 0.012
19 | DVYFHTRSCGTP | 0.688 ± 0.016
20 | GRPSSMCTGWKV | 0.74 ± 0.054
21 | KKKKKKKKEKKK | 0.726 ± 0.041
22 | PYRPYLLPGSLA | 0.632 ± 0.099
23 | PRPISLFPLPPP | 0.693 ± 0.057
24 | DLCLRSTLPLFL | 0.585 ± 0.016
25 | RPSLSRSSLLSP | 0.701 ± 0.032
26 | HGLESMNRYRWI | 0.555 ± 0.016

Row | Sequence | protein stability index
27 | PIPPPPPPPSSP | 0.699 ± 0.0086
28 | KSVMVLRLLELK | 0.636 ± 0.032
29 | LDVGSFLALRMR | 0.627 ± 0.036
30 | ERLKRNKKSTNG | 0.726 ± 0.018
31 | CTTSCARWVTTW | 0.647 ± 0.02
32 | FIGWFSLMSCSV | 0.604 ± 0.026
33 | LLVLSTVFNYPI | 0.655 ± 0.071
34 | DVISRSTRIMGE | 0.617 ± 0.018
35 | VAVWWVQCAGGV | 0.66131 ± 0.00034
36 | GGGYHLGSCDKL | 0.624 ± 0.025
37 | GSRIVCFWSGAG | 0.717 ± 0.011
38 | SLPAFPPNTFMP | 0.7 ± 0.017
39 | GCASAAMFPEEL | 0.691 ± 0.053
40 | RGVRGLWGGKRG | 0.626 ± 0.015
41 | RGIEQRHFPKGA | 0.7 ± 0.011
42 | RKRSRQLNRQLK | 0.603 ± 0.0074
43 | TKTIKPNKKATV | 0.655 ± 0.03
44 | KKKEKKIKKTIK | 0.724 ± 0.048
45 | VSGDRFKRHESV | 0.695 ± 0.027
46 | PYPVTLSRPTPT | 0.611 ± 0.15
47 | PPPPFSPPPPSA | 0.7 ± 0.04
48 | RILVFCPSSFGL | 0.64 ± 0.018
49 | EKKKEKHKDQEK | 0.692 ± 0.055
50 | WCFVPLSFRLDS | 0.71 ± 0.025
51 | LRKAKRDKRIKI | 0.759 ± 0.075
52 | GEAKAARNKRMI | 0.708 ± 0.024

Row | Sequence | protein stability index
53 | TPRYALVRHHPR | 0.695 ± 0.098
54 | PAFGLSPPSFST | 0.728 ± 0.089
55 | SPSSFVTFVVLE | 0.652 ± 0.098
56 | PNFSLPSLPHFP | 0.747 ± 0.017
57 | LPPRAPPTCFPL | 0.658 ± 0.12
58 | VGVGGRRYNVRG | 0.66 ± 0.013
59 | KKKKKETKNAQQ | 0.685 ± 0.0077
60 | QWGGWGVGRIEG | 0.629 ± 0.069
61 | RSPHLPTARSSQ | 0.723 ± 0.018
62 | AGPPPERDPGAS | 0.684 ± 0.069
63 | IYTRVWPQSWLP | 0.696 ± 0.038
64 | PSSPPSLSPPLP | 0.7177 ± 0.0034
65 | HGVQEFRVAPEF | 0.738 ± 0.035
66 | ARVRAQIRDGRT | 0.6403 ± 0.0021
67 | GGGRGTGVEFGA | 0.7 ± 0.03
68 | CVGLGGPPGGCG | 0.603 ± 0.091
69 | KSSNIDINCNQN | 0.691 ± 0.053
70 | FTISHWFSGDGE | 0.705 ± 0.015
71 | GGALFVCSSVGR | 0.681 ± 0.033
72 | RIIHIHKLFLRR | 0.677 ± 0.071
73 | QHVDRFVGVNRE | 0.715 ± 0.051
74 | GGGSLWWDVGYG | 0.6649 ± 0.0016
75 | GSVCVGGFGFFG | 0.657 ± 0.039
76 | VFGWAGVGGDCG | 0.674 ± 0.012
77 | AIFAPPFPPTPV | 0.69 ± 0.071
78 | PPLTPPPPTPPP | 0.635 ± 0.057

Row | Sequence | protein stability index
79 | APPARSPPPPRP | 0.7216 ± 0.0026
80 | PSLPWSGPPVPC | 0.664 ± 0.013
81 | QMTCADGVDCLL | 0.589 ± 0.018
82 | LALWNGVSMEEE | 0.654 ± 0.039
83 | PSSPSPLRPPSP | 0.666 ± 0.096
84 | MRDRDSVDNMDG | 0.666 ± 0.025
85 | VSCNRGAYVRSR | 0.6776 ± 0.0053
86 | GGGRGRWGPEGE | 0.6902 ± 0.0043
87 | GGGRWGAGVKGV | 0.645 ± 0.028
88 | GGNTQTNYHGCL | 0.73227 ± 0.00035
89 | PSGFPLRSYLPP | 0.707 ± 0.049
90 | VCSGPKSPATQQ | 0.695 ± 0.048
91 | RQCGKGGKEGAA | 0.653 ± 0.051
92 | LPPTLPPPPPAL | 0.724 ± 0.032
93 | PPPARLSLPPPD | 0.694 ± 0.007
94 | LPPPSLPPLPLF | 0.728 ± 0.065
95 | GVWVRGTRRGWG | 0.741 ± 0.2
96 | LRLPSHHPLCYF | 0.684 ± 0.011
97 | SLSGPRCFLHSP | 0.681 ± 0.039
98 | PPLLDLATYSSS | 0.697 ± 0.061
99 | WQCRAPRFEKGV | 0.696 ± 0.08
100 | KKTEKKYNRNRG | 0.786 ± 0.1
101 | SLENRFGGFYVG | 0.749 ± 0.066
102 | FLGAELRRLGSL | 0.703 ± 0.071
103 | RTFKYERNLEVY | 0.596 ± 0.046
104 | THPTCPLHLLPT | 0.699 ± 0.039

Row | Sequence | protein stability index
105 | FFPRVLRLRYPS | 0.754 ± 0.085
106 | PPPSPSPPPAPG | 0.6941 ± 0.006
107 | CGGFGGLYVVVF | 0.545 ± 0.014
108 | DEVLVSGGKWWE | 0.73 ± 0.1
109 | IIKDITNRGYAW | 0.724 ± 0.073
110 | GRPYPPHFQHPS | 0.773 ± 0.022
111 | PRLPPPPHPSRP | 0.698 ± 0.031
112 | KRIQGEICVPGA | 0.682 ± 0.041
113 | APPPPQSRASSP | 0.7379 ± 0.0052
114 | DDFPNKHVEPKA | 0.658 ± 0.014
115 | YGIGNVNTGRGP | 0.703 ± 0.011
116 | PPLPSPPPPSSP | 0.7157 ± 0.0022
117 | RSLYGLMNPPRG | 0.71 ± 0.011
118 | GPTPHQPRMDPR | 0.693 ± 0.011
119 | TRAGRGGCASQD | 0.701 ± 0.028
120 | ILLSVAMNLRKH | 0.571 ± 0.037
121 | NLARPTRTFAGV | 0.684 ± 0.013
122 | CFGRSPWLTINV | 0.6171 ± 0.0046
123 | TNSQTKKKINKI | 0.661 ± 0.038
124 | PSLLSSPPPPLL | 0.737 ± 0.073
125 | PSTPFAPPSATY | 0.685 ± 0.014
126 | PPFLDLSLPHIC | 0.589 ± 0.016
127 | LPLPVLPCVPPV | 0.595 ± 0.028
128 | LVAFNCVVLGKG | 0.686 ± 0.014
129 | GSGIFHPVDLGL | 0.688 ± 0.02
130 | LGSGSTQGWAGG | 0.667 ± 0.035

Row | Sequence | protein stability index
131 | KPALPPITPNLC | 0.6727 ± 0.0036
132 | AFFSFLFSNSFL | 0.664 ± 0.0082
133 | HGLLDPLSILLY | 0.668 ± 0.013
134 | PPSGGYFSTCPP | 0.731 ± 0.03
135 | VGKYVVTKNGGC | 0.694 ± 0.043
136 | CRGRGFVVGGRR | 0.687 ± 0.035
137 | PPPPRPPHLSPP | 0.7006 ± 0.0067
138 | KLNLKVRKRERP | 0.66971 ± 0.00065
139 | RVLKIIGFITYA | 0.56 ± 0.034
140 | KEQNKVHTQNKK | 0.755 ± 0.29
141 | PFPPPPPPPRSP | 0.728 ± 0.047
142 | PPPLASRLLSFL | 0.713 ± 0.022
143 | LHSRLPPCRRHV | 0.674 ± 0.021
144 | TKRQKQKKKNKE | 0.696 ± 0.071
145 | LFFFPRRLSPPT | 0.722 ± 0.05
146 | SPFPLSSLRPLP | 0.7552 ± 0.0022
147 | VGVSGEGFSWVG | 0.675 ± 0.021
148 | PPTPKHTPHDTT | 0.694 ± 0.031
149 | GKRGRDYIKVRE | 0.6448 ± 0.006
150 | KKKKKHKKPIES | 0.666 ± 0.022
151 | VPAVGGFLMFIG | 0.638 ± 0.0094
152 | PPTPTPPHPPPP | 0.611 ± 0.015
153 | PPSPSSLLFLLS | 0.7043 ± 0.0028
154 | FCIDSLNSFCFV | 0.643 ± 0.057
155 | FHARVEKQFMVM | 0.489 ± 0.031
156 | LSRFPSPPPLSH | 0.701 ± 0.024

Row | Sequence | protein stability index
157 | VVASSRSAQRLP | 0.7006 ± 0.0064
158 | PPPPPPPFRPPT | 0.651 ± 0.017
159 | PLRFLLPLLLPF | 0.582 ± 0.0087
160 | LRGPRRAVEGTP | 0.66 ± 0.031
161 | ERSQTKIANDKK | 0.719 ± 0.042
162 | LSPTPSAPPCFG | 0.601 ± 0.043
163 | RGATAKGQRRVR | 0.686 ± 0.046
164 | DPPPLPPAHSAS | 0.658 ± 0.034
165 | LPPAPLLSLPSL | 0.6921 ± 0.0034
166 | SVSEIGYEIRSL | 0.739 ± 0.068
167 | RKLNRKEKLQLT | 0.646 ± 0.051
168 | GGGRGGGEWVGG | 0.651 ± 0.043
169 | SYGDPSTTRLSP | 0.701 ± 0.063
170 | LSGYLVCSLSLR | 0.695 ± 0.045
171 | TPQTTQIKNEKH | 0.789 ± 0.14
172 | PLSPPPVNIPPT | 0.733 ± 0.039
173 | GMWFRIGHCRFA | 0.684 ± 0.058
174 | RCPDSARRWRVP | 0.7111 ± 0.0045
175 | GKKKHRSNPRRS | 0.725 ± 0.067
176 | PARPSPRPHLPD | 0.692 ± 0.04
177 | VVLGGFAVGLGF | 0.708 ± 0.021
178 | GWAIKGPFTLRS | 0.663 ± 0.044
179 | LALFDPAQRHAR | 0.704 ± 0.052
180 | QKINKRPTIRQI | 0.603 ± 0.063
181 | LGVLRALLGEGM | 0.688 ± 0.033
182 | PPPLPPSSPTYS | 0.646 ± 0.11

Row | Sequence | protein stability index
183 | LPRELFSQQRFL | 0.713 ± 0.0097
184 | KLKDRRKNTEEI | 0.6961 ± 0.0033
185 | CFSRKGIRIKRP | 0.734 ± 0.0098
186 | FRLQQGCSRHVG | 0.671 ± 0.015
187 | KEYNIKNEREEK | 0.716 ± 0.031
188 | GFALVVGNLISF | 0.636 ± 0.021
189 | GGRFPGGGGRRR | 0.583 ± 0.06
190 | LPLPPRFRRLYL | 0.7 ± 0.038
191 | HPPPFRLPPAPP | 0.639 ± 0.0072
192 | TEGGKIEGGGRK | 0.682 ± 0.087
193 | STPSPLTLPPLP | 0.695 ± 0.024
194 | GCVGGWCGGSGA | 0.698 ± 0.083
195 | WGGVGLRGGWDG | 0.713 ± 0.047
196 | CLFIAGGSDLSH | 0.7 ± 0.039
197 | PPPPRPLKLFPP | 0.588 ± 0.014
198 | PRAPHATGYNRR | 0.7016 ± 0.0069
199 | CLFSVENNNILG | 0.704 ± 0.0015
200 | CGFLFPCSPSSK | 0.689 ± 0.068
201 | RSTRDKTRLAKD | 0.743 ± 0.11
202 | KLSTGRGRTGYV | 0.698 ± 0.072
